This is an account of results in patent publication US20070098715A1 (published 2007).

Residue numbers refer to the chain shown, from its start. Bounds are passed on as bounds.

Sequences and labels used below:
B1: Ten-M2-120 (antibody, V domains shown)
VH: QVQLVESGGGVVQPGRSLRLSCAASGFTFSSYGMHWVRQAPGKGLEWVAVLWYDGSKKFYADSVKGRFTISRDNSKNTLYLQMNSLRAEDTALYYCARGPWNYYYYGMDVWGQGTTVTVSS
VL: EIVLTQSPGTLSLSPGERATLSCRASQSVISSYLAWYQQKPGQAPRLLIYNASNRATGIPDRFSGSGSGTDFTLTISRLEPEDFAVYYCQQYGSSPITFGQGTRLEIK
notes: also called Mab120
B2: Ten-M2-140 (antibody, IgG2, V domains shown)
VH: B1 VH with V2E, Y32H, V50I, L51I, Y80S, L93V
VL: B1 VL with L21F, S32N, A52T, N54S, D61G, S66G, S77T
notes: Fully human mAb from IgG2 kappa XenoMouse (B cell clone); also called Mab140; anti-Ten-M2 monoclonal antibody clone 140
B3: Ten-M2-188 (antibody, IgG2, V domains shown)
VH: QVQLVQSGAEVKKPGASVKVSCKASGYTFTGYYMHWVRQAPGQGLEWMGWINPNSGGTNSAQRFQGRVTMTRDTSIYTAYMELSRLRSDDTAVYYCAREYRSGRYYNGMDVWGQGTTVTVSS
VL: DIQLTQSPSSLSASVGDRVTITCRASQDISNYLAWYQQKPGKVPKLLIYAASTLQSGVPSRFSGSGSGTDFTLTISSLQPEDIATYSCQKYSSTPFTFGPGTKVDIK
notes: Fully human mAb from IgG2 kappa XenoMouse (B cell clone)
B4: Ten-M2-179 (antibody, IgG2, V domains shown)
VH: QVQLVESGGGVVQPGRSLRLSCAASGFTFSSYGMHWVRQAPGKGLEWVAFIWYDGSNKYYADSVKGRFTISRDNSKNTLYLQMNSLRAEDTAVYYCARDGSSGWYFFDYWGQGTLVTVSS
VL: DIVMTQTPLSLSVTPGQPASISCKSSQSLLHSDRQTYLFWYLQKPGQPPQLLIYEVSNRFSGVPDRFSGSGSGTDFTLKISRVEAEDVGVYYCMQSIQLPPTFGPGTKVDIK
notes: Fully human mAb from IgG2 kappa XenoMouse (B cell clone); also called Mab179
B5: Ten-M2-199 (antibody, IgG2, V domains shown)
VH: QVQLVQSGAEVKKPGASVKVSCKASGYTFTNYDINWLRQASGQGLEWMGWMNPDSGNTGYAQRFQGRVTMTRDTSISTAYMELSSLRSEDTAVYYCARYISSLHYYYYGMDVWGQGTTVTVSS
VL: DIQMTQSPSSLSASVGDRVTITCRASQSINSYLNWYQQKPGKAPRLLIYAASNLQSGVPSRFSGSGSGTDFTLTISSLQPEDFSTYYCQQSHNTPLTFGGGTKVEIK
notes: Fully human mAb from IgG2 kappa XenoMouse (B cell clone); also called Mab199
B6: Ten-M2-213 (antibody, IgG2, V domains shown)
VH: QVQLVQSGAEVKKPGASVKVSCKASGYTFTNYDINWVRQATGQGLEWMGWMNPNSGNTGYAQKFQGRVTMTRNTSIRTAYMELSSLRSEDTAVYYCARGPGGSFYYYYGMDVWGQGTTVTVSS
VL: DIQMTQSPSSLSASVGDRVTITCRASQSISSYLNWYQQKPGKAPNLLIYTASSLQSGVPSRFSGSGSGTVFTLTISSLQPEDFATYYCQQSSSTPFTFGPGTKVDFK
notes: Fully human mAb from IgG2 kappa XenoMouse (B cell clone); also called Mab 213
B7: Ten-M2-7.1.1 (antibody, IgG2, V domains shown)
VH: QVQLVESGGGVVQPGRSLRLSCAASGFTFSNYGMHWVRQAPGKGLEWVAVIPFDGSNKYYADSVKGRFTISRDNSKNTLYLQTNSLRAEDTAVYYCARNWGYFDYWGQGTLVTVSS
VL: DIVMTQSPLSLPVTPGEPASISCRTSQSLLQSNGYNYLDWYLQKPGQSPQLLIYLGSSRASGVPDRFSGSGSGTDFTLKISRVEAEDVGVYYCMQALQTLTFGGGTKVEIK
notes: Hybridoma clone from IgG2 kappa XenoMouse; tested as hybridoma supernatant
B8: Ten-M2-7.2.1 (antibody, IgG2, V domains shown)
VH: QVQLQESGPGLVKPSETLSLTCTVSGGSISSYYWSWIRQPPGKGLEWIGYIYYSGNTNYNPSLKSRVTISVDTSKNQFSLKLSSVTAADTAVYYCARDIVVVPAARDYDYYYGMDVWGQGTTVTVSS
VL: EIVLTQFPGTLSLSPGESAPLSCRASQSVSSIDLVWYQQKPGQAPRLLIYGASSRATGIPDRFSVSGSGTDFTLTISRLEPEDFAVYYCQQYGSSPFTFGPGTKVDIK
notes: as for B7
B9: Ten-M2-8.1 (antibody, IgG2, V domains shown)
VH: QVQLQQWGAGLLKPSETLSLTCAVYGGSFSHYYWSWIRQPPGKGLEWIGEINHSGSTNYNPSLKSRVTISVDTSKNQFSLKLSSVTAADTAVYYCARDITMVRGLGGMDVWGQGTTVTVSS
VL: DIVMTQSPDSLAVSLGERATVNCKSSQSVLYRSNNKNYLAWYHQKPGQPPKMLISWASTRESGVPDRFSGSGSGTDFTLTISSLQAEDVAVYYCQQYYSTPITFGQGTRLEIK
notes: as for B7

One assay concerns the target T1, Ten-M2 endogenously expressed on human cancer cell lines (SNB-19 and others) (human, UniProt Q9NT68 1-2774). As to the kind of experiment: cell-based or functional assay.
Regarding B1, the “% Internalization (SNB-19 cells)” value turned out to be 40% and the “Internalized Fluorescence (SNB-19 cells, 37° C. 30 min, glutathione-resistant)” value (“Internalized Fluorescence” below) was determined as 26.4.

In the case of B2, the “% Internalization (SNB-19 cells)” value is 44% and the “Internalized Fluorescence” value came out at 36.5.

As to B3, the “% Internalization (SNB-19 cells)” value turned out to be 48% and the “Internalized Fluorescence” value is 22.1.

With B4, the “% Internalization (SNB-19 cells)” value amounted to 29% and the “Internalized Fluorescence” value was determined as 13.6.

Regarding B5, the “% Internalization (SNB-19 cells)” value stood at 46% and the “Internalized Fluorescence” value was found to be 32.9.

Regarding B6, the “% Internalization (SNB-19 cells)” value was found to be 46% and the “Internalized Fluorescence” value worked out at 40.2.

Another assay deals with T2, soluble Ten-M2 antigen (FIG. 1B), Ten-M2 amino acids 400-2733 with 6xHis-V5 tag (human, UniProt Q9NT68 399-2774).
T2 construct: also called Curagen 007-V5HIS; soluble Ten-M2 (Cur007) ECD
As to the kind of experiment: ELISA, plate coated with soluble Ten-M2 antigen, hybridoma supernatant.
Turning to B7, the binding result is recorded as “binds”.

On to B8, for which the binding result is “binds”.

Turning to B9, the binding result was “binds”.

A further assay concerns the target T1, Ten-M2 endogenously expressed on human …. As to the kind of experiment: flow cytometry on SNB-19 cells at 4° C., Alexa647 anti-human IgG secondary. (In general: In flow cytometry, cells or beads pass a laser one at a time.)
As to B1, the “Total Bound Fluorescence” value stood at 58.4.

Turning to B2, the “Total Bound Fluorescence” value was 75.3.

Take B3: the “Total Bound Fluorescence” value amounted to 41.6.

With B4, the “Total Bound Fluorescence” value was found to be 89.6.

On to B5, for which the “Total Bound Fluorescence” value is 64.8.

Regarding B6, the “Total Bound Fluorescence” value was determined as 79.7.

The target in another assay is T3, Ten-M2 antigen (BiaCore analyte) (UniProt Q9NT68 399-2774).
Experiment: not given
B4 yielded a Kd of at most 0.61 nM.

The molecule B5 registered a Kd of at most 0.043 nM.

In the next assay the target is T3, Ten-M2 antigen (BiaCore analyte).
Experiment: not given
This is another data set of the same source.
In turn, B1 returned a Kd of 18 nM.

B2 yielded a Kd of 15 nM.

The next assay has the same target.
Experiment: not given
This is another data set of the same source.
On to B4, for which the koff was at most 1e-05 s⁻¹.

Molecule B5 came in with a koff of at most 1e-06 s⁻¹.

A further assay shares this target.
Experiment: not given
This is another data set of the same source.
Consider B1, for which the koff was 0.000465 s⁻¹ and the kon worked out at 26200 M⁻¹ s⁻¹.

For the molecule B2, the dissociation rate constant (koff) is 0.000605 s⁻¹ and the kon came out at 40100 M⁻¹ s⁻¹.

On to B4, for which the kon is 16300 M⁻¹ s⁻¹.

The molecule B5 had a kon of 23300 M⁻¹ s⁻¹.

For the molecule B6, the Kd was determined as 1.1 nM, the koff was 3.22e-05 s⁻¹ and the kon is 29000 M⁻¹ s⁻¹.

Usually Kd stands for the free concentration of one partner at which half of the binding sites on the other are occupied at equilibrium, for simple one-to-one binding. A low value points to higher affinity. As usually defined, the koff is a measure of how fast the partners let go of each other. The low end stands for slow dissociation, the high end for fast dissociation. What is called kon is the rate constant with which the complex forms.
